# Experimental data reported in PMC12714742, “A small periplasmic protein governs broad physiological adaptations in Vibrio cholerae via regulation of the DbfRS two-component system” (Nature Communications, 2025).
# B1: DbfQ, processed (residues 32 to 135, excluding the secretion signal), 6×His tag cleaved (natural protein)
# chain: DNKVRDWEQGSYREGTQIEIDEDQDDVYRAVQKGLIRPFAELYATVDQQLNGRLIKVELDEDDDEWIYELKLVYDNQVFRVEYNAATLELMSIRGRNVIRAIKK
# modifications: in the MST experiments only: covalently labeled with an amine-reactive Red-NHS dye
# notes: DbfQ, small periplasmic PepSY-domain protein of Vibrio cholerae (135-amino-acid precursor, gene vc_1637); processed form, residues 32 to 135 without the secretion signal; also called cleaved DbfQ; DbfQ (6×His tag-cleaved)
# B2: DbfS sensory domain, DbfS^SD-6×His (residues 43 to 171) (domain or fragment)
# chain: NLIHQYLLEDVQNQLQLSMDEITANLEANPQGQLTLTTRLADPRFTQPYSGLYWSATLGDQTLRSRSLWDRFLTEETHVHGTIYLGAKEESLIVLKRTVYLPEFSQPITITIGLDDAPLKATLQRVSKE
# notes: DbfS, sensor histidine kinase of the DbfRS two-component system of Vibrio cholerae (gene vc_1639); periplasmic sensory domain, residues 43 to 171; The vector is pET-15b; also called unlabeled DbfS; VC_1639; source: E. coli BL21 (DE3), pET-15b, purified (Ni-NTA)
# Columns and labels:
# [1] = molecular target: B2; test: MST; Red-NHS-labeled DbfQ constant at 20 nM, unlabeled DbfS 0.49 nM to 16,105 nM; buffer M (20 mM MES, 100 mM NaCl, 10% glycerol) with 0.05% Tween 20, pH 7.5, 25 °C; 1:1 binding model (PALMIST); settings: both partners purified
# [2] = molecular target: B1; test: MST; titration to saturation for stoichiometry: DbfQ-NHS 100 nM, unlabeled DbfS 0 nM to 40,000 nM, 25 °C; settings: both partners purified
Binder,Kd [1],stoichiometry N [2]
B1,30 nM,–
B2,–,1
